Reference: paper PMC2692298 (Science signaling, 2008)

Target: stromal cell derived factor-1 (SDF-1, also known as CXCL12), wild type (UniProt P48061 22-93)

For GSMEGISIYTSDNYTEEMGSGDYDSMKEPAFREENANFNK (sulfotyrosine at positions 7, 12 and 21) [CXCR4 N-terminal peptide p38-sY3 (sulfotyrosine at positions 7, 12 and 21)], the Kd was 200 ± 200 nM and the “fold tighter binding than the unsulfated peptide p38” value was roughly 20 fold.
